# Laboratory results from patent publication US20210403578A1 (Stanford University, published 2021).
# T1: Fz8-CRD (UniProt Q9H461 32-151, limits assumed, fluorescence-conjugated)
# T1 construct: domain: CRD; also called Fzd8-CRD; frizzled (Fz8-CRD)
# T1 sequence (looked up): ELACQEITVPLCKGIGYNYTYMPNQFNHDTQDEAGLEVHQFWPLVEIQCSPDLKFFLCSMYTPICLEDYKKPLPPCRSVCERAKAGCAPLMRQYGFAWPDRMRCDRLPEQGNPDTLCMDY
# B1: uncharacterized protein Bh1478 from Bacillus halodurans (other)
# chain: MDVQRVGKAGLHRVDSKKQQTAAGVSFSEVMGKQRDEKAYERLQALMSKIDDQGKLLSETRTIEELRKYKELVKEFVGDAVELGLRLEERRGFNRRGRTKIYKIVKEVDRKLLDLTDAVLAKEKKGLDILNMVGEIKGLLINIYA
# notes: also called 2QUP; wild-type scaffold
# Molecular target: T1, Fz8-CRD
# Test: yeast surface display with fluorescence-conjugated Fz8-CRD
# From the text: Fz27 was expressed in a construct enabling binding to be confirmed via yeast surface display using fluorescence-conjugated Fz8-CRD.
binder,measurement,value
B1,binding result,no binding
